Data: patent US11485991B2, “Multifunctional recombinant nucleotide dependent glycosyltransferase protein and its method of glycosylation thereof” (Council of Scientific & Industrial Research, priority 2016, dated 2022)

tested on: synthetic acceptor substrates; assay: In vitro glycosyltransferase (GT) assay of GT-CTH mutants with MS detection of glycosylated product; assay type: biochemical; settings: purified mutant of GT-CTH, acceptor substrate and UDP-glucose, MS analysis
Description: Purified recombinant nucleotide dependent glycosyltransferase (0.2 μM) is incubated with synthetic acceptor substrates (5 μM) and 100 μM UDP-glucose in a reaction buffer containing 20 mM HEPES, pH 7.5, 50 mM NaCl, 1 mM TCEP and 1 mM MgCl2. The reaction is incubated at 25° C. for 12 h. Each assay reaction was accompanied by control reaction (without enzyme). The reactions are quenched with 5% TFA to pH 2, desalted using ZipTip C18, and vacuum dried and analyzed using mass spectrometry.
Mass spectrometry has been used to detect glycosylation in product of glycosylation assay reactions using Matrix Assisted Laser Desorption Ionization Time of flight mass spectrometry (MALDI-TOF MS) and Liquid chromatography electrospray ionization mass spectrometry (LC/ESI-MS) techniques. MALDI-TOF MS has carried out at AB Sciex 5800 MALDI TOF/TOF and LC/ESI-MS has carried out at 6550 iFunnel QTOF LC/MS (Agilent Technologies) using Zorbax Eclipse plus C8 column (3.0×150 mm, 5μ) of Agilent technologies. For MALDI-TOF analysis and LC-ESI/MS analysis, vacuum dried samples are reconstituted in water and 0.1% formic acid respectively.
Various mutations are introduced in recombinant nucleotide dependent glycosyltransferase (GT-CTH) using side directed mutagenesis (Quick change lightning Mutagenesis kit, Agilent) using GTpET28a plasmid as template. The sequence of mutants is verified through DNA sequencing. The mutated recombinant plasmids are transformed into E. coli Lemo21(DE3) and E. coli BL21(DE3) cells for expression. The over expression, purification and functional analysis of mutants of recombinant nucleotide dependent glycosyltransferase proteins are performed using the above mentioned methods. The list of mutants of recombinant nucleotide dependent glycosyltransferase, created in accordance with present invention identifies D102, R136, W147, D152, A153, D154 residues critical for activity of recombinant nucleotide dependent glycosyltransferase (GT-CTH). Replacement of these residues to alanine results into abolishment of the glycosyltransferase activity.

Row | Molecule | In vitro glycosyltransferase activity status
1 | GT-CTH D131A (protein) MGYSENFIANDWFNVEVFNKNKYTLTNQENKDVTELWLQILKGLKFPNELKETVSYSKNLKELSLKTHAEVSVCIIAKNEQDSIRKCINSIYEFSDEIIFIDTGSIDSTKKIVKEIASEKVKIFDYTWQDAFSDARNYSIQKASKEWILIIDADEYVSSDELIKLRLLIDMLDRFKFKDSLRVSCAIYQLDNVITHGQSRLFRNNNKIKYYGLIHEELRNNKGLDPIFNVESEITFFHDGYKEILRKEKCERNIRLLAKMLEKEPDNVRWAYLYCRDSFSINSNIDFEKILLPFLIKNMDESISCENILLTNYTHLILFLITKKYIIDGKSSLASKCIEVLEKMLPNSSDVTFYKFLNKQHSLYEQQFEFLKEVIQFRKNNEYDQYSQIGCNLLHYDLLISGLLFDVKSYDYSYQYFLKLDLANYFSELEIPDEYKMLINKYRENESLEHHHHHH | Active
2 | GT-CTH Y241A (protein) MGYSENFIANDWFNVEVFNKNKYTLTNQENKDVTELWLQILKGLKFPNELKETVSYSKNLKELSLKTHAEVSVCIIAKNEQDSIRKCINSIYEFSDEIIFIDTGSIDSTKKIVKEIASEKVKIFDYTWQDDFSDARNYSIQKASKEWILIIDADEYVSSDELIKLRLLIDMLDRFKFKDSLRVSCAIYQLDNVITHGQSRLFRNNNKIKYYGLIHEELRNNKGLDPIFNVESEITFFHDGAKEILRKEKCERNIRLLAKMLEKEPDNVRWAYLYCRDSFSINSNIDFEKILLPFLIKNMDESISCENILLTNYTHLILFLITKKYIIDGKSSLASKCIEVLEKMLPNSSDVTFYKFLNKQHSLYEQQFEFLKEVIQFRKNNEYDQYSQIGCNLLHYDLLISGLLFDVKSYDYSYQYFLKLDLANYFSELEIPDEYKMLINKYRENESLEHHHHHH | Active
3 | GT-CTH D152A (protein) MGYSENFIANDWFNVEVFNKNKYTLTNQENKDVTELWLQILKGLKFPNELKETVSYSKNLKELSLKTHAEVSVCIIAKNEQDSIRKCINSIYEFSDEIIFIDTGSIDSTKKIVKEIASEKVKIFDYTWQDDFSDARNYSIQKASKEWILIIAADEYVSSDELIKLRLLIDMLDRFKFKDSLRVSCAIYQLDNVITHGQSRLFRNNNKIKYYGLIHEELRNNKGLDPIFNVESEITFFHDGYKEILRKEKCERNIRLLAKMLEKEPDNVRWAYLYCRDSFSINSNIDFEKILLPFLIKNMDESISCENILLTNYTHLILFLITKKYIIDGKSSLASKCIEVLEKMLPNSSDVTFYKFLNKQHSLYEQQFEFLKEVIQFRKNNEYDQYSQIGCNLLHYDLLISGLLFDVKSYDYSYQYFLKLDLANYFSELEIPDEYKMLINKYRENESLEHHHHHH | Inactive
4 | GT-CTH F132A (protein) MGYSENFIANDWFNVEVFNKNKYTLTNQENKDVTELWLQILKGLKFPNELKETVSYSKNLKELSLKTHAEVSVCIIAKNEQDSIRKCINSIYEFSDEIIFIDTGSIDSTKKIVKEIASEKVKIFDYTWQDDASDARNYSIQKASKEWILIIDADEYVSSDELIKLRLLIDMLDRFKFKDSLRVSCAIYQLDNVITHGQSRLFRNNNKIKYYGLIHEELRNNKGLDPIFNVESEITFFHDGYKEILRKEKCERNIRLLAKMLEKEPDNVRWAYLYCRDSFSINSNIDFEKILLPFLIKNMDESISCENILLTNYTHLILFLITKKYIIDGKSSLASKCIEVLEKMLPNSSDVTFYKFLNKQHSLYEQQFEFLKEVIQFRKNNEYDQYSQIGCNLLHYDLLISGLLFDVKSYDYSYQYFLKLDLANYFSELEIPDEYKMLINKYRENESLEHHHHHH | Active
5 | GT-CTH D154A (protein) MGYSENFIANDWFNVEVFNKNKYTLTNQENKDVTELWLQILKGLKFPNELKETVSYSKNLKELSLKTHAEVSVCIIAKNEQDSIRKCINSIYEFSDEIIFIDTGSIDSTKKIVKEIASEKVKIFDYTWQDDFSDARNYSIQKASKEWILIIDAAEYVSSDELIKLRLLIDMLDRFKFKDSLRVSCAIYQLDNVITHGQSRLFRNNNKIKYYGLIHEELRNNKGLDPIFNVESEITFFHDGYKEILRKEKCERNIRLLAKMLEKEPDNVRWAYLYCRDSFSINSNIDFEKILLPFLIKNMDESISCENILLTNYTHLILFLITKKYIIDGKSSLASKCIEVLEKMLPNSSDVTFYKFLNKQHSLYEQQFEFLKEVIQFRKNNEYDQYSQIGCNLLHYDLLISGLLFDVKSYDYSYQYFLKLDLANYFSELEIPDEYKMLINKYRENESLEHHHHHH | Inactive
6 | GT-CTH R136A (protein) MGYSENFIANDWFNVEVFNKNKYTLTNQENKDVTELWLQILKGLKFPNELKETVSYSKNLKELSLKTHAEVSVCIIAKNEQDSIRKCINSIYEFSDEIIFIDTGSIDSTKKIVKEIASEKVKIFDYTWQDDFSDAANYSIQKASKEWILIIDADEYVSSDELIKLRLLIDMLDRFKFKDSLRVSCAIYQLDNVITHGQSRLFRNNNKIKYYGLIHEELRNNKGLDPIFNVESEITFFHDGYKEILRKEKCERNIRLLAKMLEKEPDNVRWAYLYCRDSFSINSNIDFEKILLPFLIKNMDESISCENILLTNYTHLILFLITKKYIIDGKSSLASKCIEVLEKMLPNSSDVTFYKFLNKQHSLYEQQFEFLKEVIQFRKNNEYDQYSQIGCNLLHYDLLISGLLFDVKSYDYSYQYFLKLDLANYFSELEIPDEYKMLINKYRENESLEHHHHHH | Inactive
7 | GT-CTH W147A (protein) MGYSENFIANDWFNVEVFNKNKYTLTNQENKDVTELWLQILKGLKFPNELKETVSYSKNLKELSLKTHAEVSVCIIAKNEQDSIRKCINSIYEFSDEIIFIDTGSIDSTKKIVKEIASEKVKIFDYTWQDDFSDARNYSIQKASKEAILIIDADEYVSSDELIKLRLLIDMLDRFKFKDSLRVSCAIYQLDNVITHGQSRLFRNNNKIKYYGLIHEELRNNKGLDPIFNVESEITFFHDGYKEILRKEKCERNIRLLAKMLEKEPDNVRWAYLYCRDSFSINSNIDFEKILLPFLIKNMDESISCENILLTNYTHLILFLITKKYIIDGKSSLASKCIEVLEKMLPNSSDVTFYKFLNKQHSLYEQQFEFLKEVIQFRKNNEYDQYSQIGCNLLHYDLLISGLLFDVKSYDYSYQYFLKLDLANYFSELEIPDEYKMLINKYRENESLEHHHHHH | Inactive
8 | GT-CTH A153R (protein) MGYSENFIANDWFNVEVFNKNKYTLTNQENKDVTELWLQILKGLKFPNELKETVSYSKNLKELSLKTHAEVSVCIIAKNEQDSIRKCINSIYEFSDEIIFIDTGSIDSTKKIVKEIASEKVKIFDYTWQDDFSDARNYSIQKASKEWILIIDRDEYVSSDELIKLRLLIDMLDRFKFKDSLRVSCAIYQLDNVITHGQSRLFRNNNKIKYYGLIHEELRNNKGLDPIFNVESEITFFHDGYKEILRKEKCERNIRLLAKMLEKEPDNVRWAYLYCRDSFSINSNIDFEKILLPFLIKNMDESISCENILLTNYTHLILFLITKKYIIDGKSSLASKCIEVLEKMLPNSSDVTFYKFLNKQHSLYEQQFEFLKEVIQFRKNNEYDQYSQIGCNLLHYDLLISGLLFDVKSYDYSYQYFLKLDLANYFSELEIPDEYKMLINKYRENESLEHHHHHH | Inactive
9 | GT-CTH D131A, F132D (protein) MGYSENFIANDWFNVEVFNKNKYTLTNQENKDVTELWLQILKGLKFPNELKETVSYSKNLKELSLKTHAEVSVCIIAKNEQDSIRKCINSIYEFSDEIIFIDTGSIDSTKKIVKEIASEKVKIFDYTWQDADSDARNYSIQKASKEWILIIDADEYVSSDELIKLRLLIDMLDRFKFKDSLRVSCAIYQLDNVITHGQSRLFRNNNKIKYYGLIHEELRNNKGLDPIFNVESEITFFHDGYKEILRKEKCERNIRLLAKMLEKEPDNVRWAYLYCRDSFSINSNIDFEKILLPFLIKNMDESISCENILLTNYTHLILFLITKKYIIDGKSSLASKCIEVLEKMLPNSSDVTFYKFLNKQHSLYEQQFEFLKEVIQFRKNNEYDQYSQIGCNLLHYDLLISGLLFDVKSYDYSYQYFLKLDLANYFSELEIPDEYKMLINKYRENESLEHHHHHH | Inactive
10 | GT-CTH D130A, D131A (protein) MGYSENFIANDWFNVEVFNKNKYTLTNQENKDVTELWLQILKGLKFPNELKETVSYSKNLKELSLKTHAEVSVCIIAKNEQDSIRKCINSIYEFSDEIIFIDTGSIDSTKKIVKEIASEKVKIFDYTWQAAFSDARNYSIQKASKEWILIIDADEYVSSDELIKLRLLIDMLDRFKFKDSLRVSCAIYQLDNVITHGQSRLFRNNNKIKYYGLIHEELRNNKGLDPIFNVESEITFFHDGYKEILRKEKCERNIRLLAKMLEKEPDNVRWAYLYCRDSFSINSNIDFEKILLPFLIKNMDESISCENILLTNYTHLILFLITKKYIIDGKSSLASKCIEVLEKMLPNSSDVTFYKFLNKQHSLYEQQFEFLKEVIQFRKNNEYDQYSQIGCNLLHYDLLISGLLFDVKSYDYSYQYFLKLDLANYFSELEIPDEYKMLINKYRENESLEHHHHHH | Inactive
